From paper PMC6222199, “Regulatory Targets of the Response Regulator RR_1586 from Clostridioides difficile Identified Using a Bacterial One-Hybrid Screen”

Experiments:
[1] = molecular target: T1, RR_1586 (Clostridioides difficile R20291, UniProt A0A9R0BKD1 1-223); experiment: EMSA; 10 mM Mg2+; EMSA: 5 pmol DNA in 10 ul (500 nM), 10 mM Tris pH 8, 50 mM NaCl, 10 mM MgCl2, room temperature 10 min; 10% PAGE 0.5x TBE on ice, ethidium bromide; conditions: protein: recombinant; tags: His6; chain copies: 2; blunt
[2] = molecular target: T1, RR_1586; experiment: EMSA; 10 mM Mg2+; unphosphorylated; EMSA: 5 pmol DNA in 10 ul (500 nM), 10 mM Tris pH 8, 50 mM NaCl, 10 mM MgCl2, room temperature 10 min; 10% PAGE 0.5x TBE on ice, ethidium bromide; conditions: protein: recombinant; tags: His6; chain copies: 2; blunt

Binder	binding result [1]	binding result [2]
CDR20291_0578 native direct repeat (dsDNA) DNA 1: ATTTTATTAAGAATGGGTTAAGAGTATAC DNA 2: GTATACTCTTAACCCATTCTTAATAAAAT	binds	
CDR20291_3121 (pst) site (dsDNA) DNA 1: CTATATTAGGATTAAGTTAAGCAAGTGT DNA 2: ACACTTGCTTAACTTAATCCTAATATAG	binds	
CDR20291_1583 site (dsDNA) DNA 1: AGGAATTAAGGAGCAATTAAATGATG DNA 2: CATCATTTAATTGCTCCTTAATTCCT		binds
CDR20291_3145 site (dsDNA) DNA 1: ATAGTTAAGGTTTAATTAAGATTAAA DNA 2: TTTAATCTTAATTAAACCTTAACTAT	binds	
